# Data from patent publication US20260015399A1 (Boehringer Ingelheim, published 2026).
# *1 amine or outer side, *2 acyl side, *3 side chain or, on linkers, in order; H or OH if unused. Side-chain parts run from the residue outwards. The star is where a group is joined. C18 diacid = O=C(O)CCCCCCCCCCCCCCCCC(=O)*; γGlu = O=C(O)[C@H](CCC(=O)[*:2])N[*:1]; Isovaleryl = CC(C)CC(=O)*; Ahx = NCCCCCC(=O)O
# T1: human NPY2 receptor (human, UniProt P49146 1-381)
# T1 sequence (looked up): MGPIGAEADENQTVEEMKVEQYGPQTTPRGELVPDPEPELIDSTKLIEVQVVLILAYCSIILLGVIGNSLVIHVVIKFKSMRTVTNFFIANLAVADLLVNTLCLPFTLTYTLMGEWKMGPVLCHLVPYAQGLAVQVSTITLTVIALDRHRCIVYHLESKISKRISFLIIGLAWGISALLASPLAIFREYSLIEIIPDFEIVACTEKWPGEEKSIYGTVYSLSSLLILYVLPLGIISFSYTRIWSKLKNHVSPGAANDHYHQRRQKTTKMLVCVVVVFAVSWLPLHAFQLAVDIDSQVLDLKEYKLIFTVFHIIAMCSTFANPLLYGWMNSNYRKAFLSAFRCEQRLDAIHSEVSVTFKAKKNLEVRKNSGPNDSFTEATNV
# T2: human NPY5 receptor (human, UniProt Q15761 1-445)
# T2 sequence (looked up): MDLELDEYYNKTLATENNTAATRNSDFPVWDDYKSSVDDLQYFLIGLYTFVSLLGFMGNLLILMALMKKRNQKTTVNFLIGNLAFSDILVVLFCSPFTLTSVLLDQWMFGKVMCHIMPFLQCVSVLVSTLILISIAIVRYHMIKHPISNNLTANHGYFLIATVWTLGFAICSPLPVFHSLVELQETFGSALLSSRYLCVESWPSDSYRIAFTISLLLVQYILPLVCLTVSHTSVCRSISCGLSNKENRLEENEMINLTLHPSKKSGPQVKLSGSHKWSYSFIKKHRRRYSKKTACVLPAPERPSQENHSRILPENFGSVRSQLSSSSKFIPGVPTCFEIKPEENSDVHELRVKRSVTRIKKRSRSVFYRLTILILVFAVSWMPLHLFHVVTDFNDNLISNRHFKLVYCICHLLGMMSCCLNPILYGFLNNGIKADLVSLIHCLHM
# How the values were obtained:
# human NPY2 receptor [1] = molecular target: T1, human NPY2 receptor; experiment: cell-based or functional assay
# human NPY5 receptor = molecular target: T2, human NPY5 receptor; experiment: cell-based or functional assay
# human NPY2 receptor [2] = molecular target: T1, human NPY2 receptor; experiment: RLB: displacement of 125I-PYY(1-36) from hNPY2R membranes
Binder,"EC50, HTRF cAMP Gi assay (human NPY2 receptor [1])","EC50, HTRF cAMP Gi assay (human NPY5 receptor)",Ki (human NPY2 receptor [2])
Isovaleryl-APAK([Ahx-γGlu-C18 diacid])PEEDATPEELQRYYVSLRHYYNWLTRQRY-NH2 (SMILES CC(C)CC(=O)N[C@@H](C)C(=O)N1CCC[C@H]1C(=O)N[C@@H](C)C(=O)N[C@@H](CCCCNC(=O)CCCCCNC(=O)CC[C@H](NC(=O)CCCCCCCCCCCCCCCCC(=O)O)C(=O)O)C(=O)N1CCC[C@H]1C(=O)N[C@@H](CCC(=O)O)C(=O)N[C@@H](CCC(=O)O)C(=O)N[C@@H](CC(=O)O)C(=O)N[C@@H](C)C(=O)N[C@H](C(=O)N1CCC[C@H]1C(=O)N[C@@H](CCC(=O)O)C(=O)N[C@@H](CCC(=O)O)C(=O)N[C@@H](CC(C)C)C(=O)N[C@@H](CCC(N)=O)C(=O)N[C@@H](CCCNC(=N)N)C(=O)N[C@@H](Cc1ccc(O)cc1)C(=O)N[C@@H](Cc1ccc(O)cc1)C(=O)N[C@H](C(=O)N[C@@H](CO)C(=O)N[C@@H](CC(C)C)C(=O)N[C@@H](CCCNC(=N)N)C(=O)N[C@@H](Cc1c[nH]cn1)C(=O)N[C@@H](Cc1ccc(O)cc1)C(=O)N[C@@H](Cc1ccc(O)cc1)C(=O)N[C@@H](CC(N)=O)C(=O)N[C@@H](Cc1c[nH]c2ccccc12)C(=O)N[C@@H](CC(C)C)C(=O)N[C@H](C(=O)N[C@@H](CCCNC(=N)N)C(=O)N[C@@H](CCC(N)=O)C(=O)N[C@@H](CCCNC(=N)N)C(=O)N[C@@H](Cc1ccc(O)cc1)C(N)=O)[C@@H](C)O)C(C)C)[C@@H](C)O) [Compound 26],0.108 nM,> 5000 nM,5.64 nM
Isovaleryl-APEK([Ahx-γGlu-C18 diacid])PEEDASPEELQRYYISLRHYYNWLTRQRY-NH2 (SMILES CC[C@H](C)[C@H](NC(=O)[C@H](Cc1ccc(O)cc1)NC(=O)[C@H](Cc1ccc(O)cc1)NC(=O)[C@H](CCCNC(=N)N)NC(=O)[C@H](CCC(N)=O)NC(=O)[C@H](CC(C)C)NC(=O)[C@H](CCC(=O)O)NC(=O)[C@H](CCC(=O)O)NC(=O)[C@@H]1CCCN1C(=O)[C@H](CO)NC(=O)[C@H](C)NC(=O)[C@H](CC(=O)O)NC(=O)[C@H](CCC(=O)O)NC(=O)[C@H](CCC(=O)O)NC(=O)[C@@H]1CCCN1C(=O)[C@H](CCCCNC(=O)CCCCCNC(=O)CC[C@H](NC(=O)CCCCCCCCCCCCCCCCC(=O)O)C(=O)O)NC(=O)[C@H](CCC(=O)O)NC(=O)[C@@H]1CCCN1C(=O)[C@H](C)NC(=O)CC(C)C)C(=O)N[C@@H](CO)C(=O)N[C@@H](CC(C)C)C(=O)N[C@@H](CCCNC(=N)N)C(=O)N[C@@H](Cc1c[nH]cn1)C(=O)N[C@@H](Cc1ccc(O)cc1)C(=O)N[C@@H](Cc1ccc(O)cc1)C(=O)N[C@@H](CC(N)=O)C(=O)N[C@@H](Cc1c[nH]c2ccccc12)C(=O)N[C@@H](CC(C)C)C(=O)N[C@H](C(=O)N[C@@H](CCCNC(=N)N)C(=O)N[C@@H](CCC(N)=O)C(=O)N[C@@H](CCCNC(=N)N)C(=O)N[C@@H](Cc1ccc(O)cc1)C(N)=O)[C@@H](C)O) [Compound 76],0.172 nM,> 5000 nM,2.68 nM
Isovaleryl-APEK([Ahx-γGlu-C18 diacid])PEADAEPEELQRYYVSLRHYYNWLTRQRY-NH2 (SMILES CC(C)CC(=O)N[C@@H](C)C(=O)N1CCC[C@H]1C(=O)N[C@@H](CCC(=O)O)C(=O)N[C@@H](CCCCNC(=O)CCCCCNC(=O)CC[C@H](NC(=O)CCCCCCCCCCCCCCCCC(=O)O)C(=O)O)C(=O)N1CCC[C@H]1C(=O)N[C@@H](CCC(=O)O)C(=O)N[C@@H](C)C(=O)N[C@@H](CC(=O)O)C(=O)N[C@@H](C)C(=O)N[C@@H](CCC(=O)O)C(=O)N1CCC[C@H]1C(=O)N[C@@H](CCC(=O)O)C(=O)N[C@@H](CCC(=O)O)C(=O)N[C@@H](CC(C)C)C(=O)N[C@@H](CCC(N)=O)C(=O)N[C@@H](CCCNC(=N)N)C(=O)N[C@@H](Cc1ccc(O)cc1)C(=O)N[C@@H](Cc1ccc(O)cc1)C(=O)N[C@H](C(=O)N[C@@H](CO)C(=O)N[C@@H](CC(C)C)C(=O)N[C@@H](CCCNC(=N)N)C(=O)N[C@@H](Cc1c[nH]cn1)C(=O)N[C@@H](Cc1ccc(O)cc1)C(=O)N[C@@H](Cc1ccc(O)cc1)C(=O)N[C@@H](CC(N)=O)C(=O)N[C@@H](Cc1c[nH]c2ccccc12)C(=O)N[C@@H](CC(C)C)C(=O)N[C@H](C(=O)N[C@@H](CCCNC(=N)N)C(=O)N[C@@H](CCC(N)=O)C(=O)N[C@@H](CCCNC(=N)N)C(=O)N[C@@H](Cc1ccc(O)cc1)C(N)=O)[C@@H](C)O)C(C)C) [Compound 72],0.197 nM,> 5000 nM,2.79 nM
Isovaleryl-APEK([Ahx-γGlu-C18 diacid])PEEDASPEEIQRYYVELRHYYNWLTRQRY-NH2 (SMILES CC[C@H](C)[C@H](NC(=O)[C@H](CCC(=O)O)NC(=O)[C@H](CCC(=O)O)NC(=O)[C@@H]1CCCN1C(=O)[C@H](CO)NC(=O)[C@H](C)NC(=O)[C@H](CC(=O)O)NC(=O)[C@H](CCC(=O)O)NC(=O)[C@H](CCC(=O)O)NC(=O)[C@@H]1CCCN1C(=O)[C@H](CCCCNC(=O)CCCCCNC(=O)CC[C@H](NC(=O)CCCCCCCCCCCCCCCCC(=O)O)C(=O)O)NC(=O)[C@H](CCC(=O)O)NC(=O)[C@@H]1CCCN1C(=O)[C@H](C)NC(=O)CC(C)C)C(=O)N[C@@H](CCC(N)=O)C(=O)N[C@@H](CCCNC(=N)N)C(=O)N[C@@H](Cc1ccc(O)cc1)C(=O)N[C@@H](Cc1ccc(O)cc1)C(=O)N[C@H](C(=O)N[C@@H](CCC(=O)O)C(=O)N[C@@H](CC(C)C)C(=O)N[C@@H](CCCNC(=N)N)C(=O)N[C@@H](Cc1c[nH]cn1)C(=O)N[C@@H](Cc1ccc(O)cc1)C(=O)N[C@@H](Cc1ccc(O)cc1)C(=O)N[C@@H](CC(N)=O)C(=O)N[C@@H](Cc1c[nH]c2ccccc12)C(=O)N[C@@H](CC(C)C)C(=O)N[C@H](C(=O)N[C@@H](CCCNC(=N)N)C(=O)N[C@@H](CCC(N)=O)C(=O)N[C@@H](CCCNC(=N)N)C(=O)N[C@@H](Cc1ccc(O)cc1)C(N)=O)[C@@H](C)O)C(C)C) [Compound 52],0.176 nM,> 5000 nM,2.39 nM

# Now from value to binder:
"EC50, HTRF cAMP Gi assay (human NPY2 receptor [1])","EC50, HTRF cAMP Gi assay (human NPY5 receptor)",Ki (human NPY2 receptor [2]),Binder
0.076 nM,> 5000 nM,1.54 nM,Isovaleryl-APEK([Ahx-γGlu-C18 diacid])PEEDASPEELQRYYVSLRHYYNWLTRQRY-NH2 (SMILES CC(C)CC(=O)N[C@@H](C)C(=O)N1CCC[C@H]1C(=O)N[C@@H](CCC(=O)O)C(=O)N[C@@H](CCCCNC(=O)CCCCCNC(=O)CC[C@H](NC(=O)CCCCCCCCCCCCCCCCC(=O)O)C(=O)O)C(=O)N1CCC[C@H]1C(=O)N[C@@H](CCC(=O)O)C(=O)N[C@@H](CCC(=O)O)C(=O)N[C@@H](CC(=O)O)C(=O)N[C@@H](C)C(=O)N[C@@H](CO)C(=O)N1CCC[C@H]1C(=O)N[C@@H](CCC(=O)O)C(=O)N[C@@H](CCC(=O)O)C(=O)N[C@@H](CC(C)C)C(=O)N[C@@H](CCC(N)=O)C(=O)N[C@@H](CCCNC(=N)N)C(=O)N[C@@H](Cc1ccc(O)cc1)C(=O)N[C@@H](Cc1ccc(O)cc1)C(=O)N[C@H](C(=O)N[C@@H](CO)C(=O)N[C@@H](CC(C)C)C(=O)N[C@@H](CCCNC(=N)N)C(=O)N[C@@H](Cc1c[nH]cn1)C(=O)N[C@@H](Cc1ccc(O)cc1)C(=O)N[C@@H](Cc1ccc(O)cc1)C(=O)N[C@@H](CC(N)=O)C(=O)N[C@@H](Cc1c[nH]c2ccccc12)C(=O)N[C@@H](CC(C)C)C(=O)N[C@H](C(=O)N[C@@H](CCCNC(=N)N)C(=O)N[C@@H](CCC(N)=O)C(=O)N[C@@H](CCCNC(=N)N)C(=O)N[C@@H](Cc1ccc(O)cc1)C(N)=O)[C@@H](C)O)C(C)C) [Compound 79]
0.219 nM,5000 nM,4.64 nM,Isovaleryl-APEK([Ahx-γGlu-C18 diacid])PEEDAEPEELQRYYTSLRHYYHWLTRQRY-NH2 (SMILES CC(C)CC(=O)N[C@@H](C)C(=O)N1CCC[C@H]1C(=O)N[C@@H](CCC(=O)O)C(=O)N[C@@H](CCCCNC(=O)CCCCCNC(=O)CC[C@H](NC(=O)CCCCCCCCCCCCCCCCC(=O)O)C(=O)O)C(=O)N1CCC[C@H]1C(=O)N[C@@H](CCC(=O)O)C(=O)N[C@@H](CCC(=O)O)C(=O)N[C@@H](CC(=O)O)C(=O)N[C@@H](C)C(=O)N[C@@H](CCC(=O)O)C(=O)N1CCC[C@H]1C(=O)N[C@@H](CCC(=O)O)C(=O)N[C@@H](CCC(=O)O)C(=O)N[C@@H](CC(C)C)C(=O)N[C@@H](CCC(N)=O)C(=O)N[C@@H](CCCNC(=N)N)C(=O)N[C@@H](Cc1ccc(O)cc1)C(=O)N[C@@H](Cc1ccc(O)cc1)C(=O)N[C@H](C(=O)N[C@@H](CO)C(=O)N[C@@H](CC(C)C)C(=O)N[C@@H](CCCNC(=N)N)C(=O)N[C@@H](Cc1c[nH]cn1)C(=O)N[C@@H](Cc1ccc(O)cc1)C(=O)N[C@@H](Cc1ccc(O)cc1)C(=O)N[C@@H](Cc1c[nH]cn1)C(=O)N[C@@H](Cc1c[nH]c2ccccc12)C(=O)N[C@@H](CC(C)C)C(=O)N[C@H](C(=O)N[C@@H](CCCNC(=N)N)C(=O)N[C@@H](CCC(N)=O)C(=O)N[C@@H](CCCNC(=N)N)C(=O)N[C@@H](Cc1ccc(O)cc1)C(N)=O)[C@@H](C)O)[C@@H](C)O) [Compound 91]
